Assay: label from the status in PepcDB records
In the case of “MMYPYVRLFMEMRRARRLDPLPVLGTHRSSHRCLPWDLAPWRELNNGRTLTLFDLGRAPLLVRTGMQRICSEKGWGMTVAGSSVRYRRRVVLMERLEMVSRCLGWDGRFFYMEQSLWRKGDCTSHMLLRAATTTGSGIVPPAEVAAALGAGESPPLPDWAQAWIEADALRPWPPAALEHHHHHH”, the protein production is reported as “failed”.
With “MMYRNQCTAKEKLMNRINEVSFAVNDVLLYLDTHPCCEEAISFYQECEQERQKLLKEYAQCYGPLTVDAALESGGDTWKWVQQPFPWETEGGCRLEHHHHHH” the protein production was “not failed”.
With “MNADYFFNQGLSDNLSREYQRTVVGGTKPTNRRIDAETYCKRGITFSRELKDYQGAIAFFNLAVEINPNYAQAYYHRANARYCLADFTAAIADYDQALQINPTFAEYYYCRGNAYLAQGDYDQAIANYISTIEFDPLLASNINEDIANAYYYRGLNNNDQGNYQEAIIDLQQALQWHPYFAAAYSIRGNIYYKLGEYRQAIADHERAVQLDPNLAEAYQNRGNAHYALGAYQKAIADYNRTLEINPHQVGAYYNRGLISFYLHEYQQAFADFNQVLNFNPNDAQAYYQRGLIYEAWQDYQSALADYNQSLQLNSELAVVYGVRANIYRHLGDYPSALADGNRLLELQPNFAAGYCDRATSRRCLGDYRGAIADYNQALQINPNIAEAYYGRAIAHEALRDFIGAIADYTQSIRISPDFAPAYCNRGNARRQLGDTKGAVTDYNQALTINPQLSEAYYNRGSLHYDQQNYRSAIADYTQALELQPESARYYSDRAHARYALQDYQGAVADYTQSIAINPGYAEDWYNRGRSHLLLGYLEEALADLNQALKFHPHWASAYLLRADILRNRGDYQAAIADFQKSADLYSQEGNTQNYQQILEIIAGLK” the protein production was “failed”.
With “MNAENNQTTTTHSKVISHVFCTGTAKLGSVGPPIGLVDIGVSEVAYIFRVSLPGIEKNQDKIKCEIQREGRVCIQGVIPEIAIPSDTGCLYRMQVQQLCPPGPFSITFNLPGQVDPRLFSPNFRSDGIFEVVVVKLGVRIPTS” the protein production was “failed”.
With “MNAIILAAGFGSRLMPLTKDQPKCMVEYKNKKIIDYEIEALKSAGINEIAVVGGYLNDVLKNYLNKYDIEHFFINSKYDKTNMVHTFFCAKDFMLKCIEEKQDLIISYADIVYFQDCVQKLINAKEELAIVVDKSWCKLWSKRFANPLEDAETLKMTNGYIIELGKKANAYDEIEAQYIGLFKFSYQFLSEVIAFYEMLDRDILYDNKNFENMYMTSFLQALIEKYNNAKAVEIDGNWCEIDFMSDLEVQIEKLEHHHHHH” the protein production was “failed”.
With “MNAIISPDYYYVLTVAGQSNAMAYGEGLPLPDREDAPHPRIKQLARFAHTHPGGPSCHFNDIIPLTHCPHDVQDMQSYHHPLATNHQTQYGTVGQALHIARKLLPFIPDNAGILIVPCCRGGSAFTAGSEGTYSERHGASHDACRWGTDTPLYQDLVSRTRAALVKNPQNKFLGVCWMQGEFDLMTSDYASHPQHFNHMVEAFRRDLKQYHSQLNNITDAPWFCGDTTWYWKENFPHAYEAIYGNYQNNILANIIFVDFQQQGARGLTNAPDEDPDDLSTGYYGSAYRSPENWTTAXRSSHFSSAARRGIISDRFVEAILQFWRER” the protein production was “not failed”.
With “MNAKPKDTVIANARIVLADRVIEQGWLALANGRVAEIGEGRAPAGAEDAGGDLIMPGLIELHTDHLEAHYVPRPKVFWNPVAAVVSYDGQLATSGITTVFDSLRVWREDGAEEVDGRAGVLAAAITTARDADLLRADHFLHLRCEIPMPSVVEEAKELIDRPDVKLMSLMDHTPGQRQFRDEGKLRDYYRGKNGGKTDAQLDELFAKRFEYQKAYAATNMREIVALAHQYNIPLASHDDTTEENVADAVRDRVSVAEFPTTLEAARGLHQAGIDILMGAPNVVRGGSHSGNIAAVDLAREGLLDILSSDYIPSSLLMAALQLPEHVPAISLPAAVRTVTKAPAEAVGLSDRGEIAVGKRADLIRVHIAGSVPVVRSVWREGGRVA” the protein production was “failed”.

Reference: a protein production outcome set (Wang et al. 2014)
